Consider 4 proteins from patent US6555328.

The target in data set [1] is T1, Flag-tagged hPER1 (human Period 1, full-length open reading frame, amino acids 1 to 1289), O15534.
T1 chain: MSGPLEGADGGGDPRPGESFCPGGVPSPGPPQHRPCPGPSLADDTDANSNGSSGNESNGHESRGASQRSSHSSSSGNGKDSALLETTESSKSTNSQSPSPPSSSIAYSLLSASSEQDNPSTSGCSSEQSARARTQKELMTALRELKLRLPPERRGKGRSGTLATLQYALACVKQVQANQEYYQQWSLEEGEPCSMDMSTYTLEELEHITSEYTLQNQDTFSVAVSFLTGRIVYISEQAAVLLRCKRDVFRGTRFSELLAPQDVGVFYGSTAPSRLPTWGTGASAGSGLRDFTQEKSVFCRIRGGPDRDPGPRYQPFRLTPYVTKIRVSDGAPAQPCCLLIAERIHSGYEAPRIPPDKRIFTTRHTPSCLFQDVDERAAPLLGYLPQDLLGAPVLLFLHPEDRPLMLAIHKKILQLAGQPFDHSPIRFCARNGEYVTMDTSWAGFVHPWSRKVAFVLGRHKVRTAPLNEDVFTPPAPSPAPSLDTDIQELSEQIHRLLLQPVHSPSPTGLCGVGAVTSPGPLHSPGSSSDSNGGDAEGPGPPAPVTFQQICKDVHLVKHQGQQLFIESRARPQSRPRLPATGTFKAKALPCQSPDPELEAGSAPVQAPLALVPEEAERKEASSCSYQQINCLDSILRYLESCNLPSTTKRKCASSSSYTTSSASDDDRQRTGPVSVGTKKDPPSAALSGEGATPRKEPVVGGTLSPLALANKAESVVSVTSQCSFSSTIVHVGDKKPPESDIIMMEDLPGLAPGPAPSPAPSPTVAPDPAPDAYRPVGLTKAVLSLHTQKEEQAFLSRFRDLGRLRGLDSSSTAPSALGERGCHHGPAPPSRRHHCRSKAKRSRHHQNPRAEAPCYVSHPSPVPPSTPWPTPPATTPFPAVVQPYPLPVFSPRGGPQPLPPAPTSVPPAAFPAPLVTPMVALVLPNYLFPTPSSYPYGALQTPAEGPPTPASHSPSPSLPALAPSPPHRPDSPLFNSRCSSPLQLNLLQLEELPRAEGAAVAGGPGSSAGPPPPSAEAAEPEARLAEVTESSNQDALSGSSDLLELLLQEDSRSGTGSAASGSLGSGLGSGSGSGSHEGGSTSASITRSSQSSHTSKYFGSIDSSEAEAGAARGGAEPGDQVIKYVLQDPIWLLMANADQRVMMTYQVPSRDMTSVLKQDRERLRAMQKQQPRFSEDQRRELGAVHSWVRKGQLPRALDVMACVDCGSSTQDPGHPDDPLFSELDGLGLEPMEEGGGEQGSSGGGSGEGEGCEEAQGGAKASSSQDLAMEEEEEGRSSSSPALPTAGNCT

In data set [2] the target is T2, hPER2-C-terminal YGFP protein (human Period 2, full-length ORF), O15055.
T2 sequence (O15055 whole entry, looked up): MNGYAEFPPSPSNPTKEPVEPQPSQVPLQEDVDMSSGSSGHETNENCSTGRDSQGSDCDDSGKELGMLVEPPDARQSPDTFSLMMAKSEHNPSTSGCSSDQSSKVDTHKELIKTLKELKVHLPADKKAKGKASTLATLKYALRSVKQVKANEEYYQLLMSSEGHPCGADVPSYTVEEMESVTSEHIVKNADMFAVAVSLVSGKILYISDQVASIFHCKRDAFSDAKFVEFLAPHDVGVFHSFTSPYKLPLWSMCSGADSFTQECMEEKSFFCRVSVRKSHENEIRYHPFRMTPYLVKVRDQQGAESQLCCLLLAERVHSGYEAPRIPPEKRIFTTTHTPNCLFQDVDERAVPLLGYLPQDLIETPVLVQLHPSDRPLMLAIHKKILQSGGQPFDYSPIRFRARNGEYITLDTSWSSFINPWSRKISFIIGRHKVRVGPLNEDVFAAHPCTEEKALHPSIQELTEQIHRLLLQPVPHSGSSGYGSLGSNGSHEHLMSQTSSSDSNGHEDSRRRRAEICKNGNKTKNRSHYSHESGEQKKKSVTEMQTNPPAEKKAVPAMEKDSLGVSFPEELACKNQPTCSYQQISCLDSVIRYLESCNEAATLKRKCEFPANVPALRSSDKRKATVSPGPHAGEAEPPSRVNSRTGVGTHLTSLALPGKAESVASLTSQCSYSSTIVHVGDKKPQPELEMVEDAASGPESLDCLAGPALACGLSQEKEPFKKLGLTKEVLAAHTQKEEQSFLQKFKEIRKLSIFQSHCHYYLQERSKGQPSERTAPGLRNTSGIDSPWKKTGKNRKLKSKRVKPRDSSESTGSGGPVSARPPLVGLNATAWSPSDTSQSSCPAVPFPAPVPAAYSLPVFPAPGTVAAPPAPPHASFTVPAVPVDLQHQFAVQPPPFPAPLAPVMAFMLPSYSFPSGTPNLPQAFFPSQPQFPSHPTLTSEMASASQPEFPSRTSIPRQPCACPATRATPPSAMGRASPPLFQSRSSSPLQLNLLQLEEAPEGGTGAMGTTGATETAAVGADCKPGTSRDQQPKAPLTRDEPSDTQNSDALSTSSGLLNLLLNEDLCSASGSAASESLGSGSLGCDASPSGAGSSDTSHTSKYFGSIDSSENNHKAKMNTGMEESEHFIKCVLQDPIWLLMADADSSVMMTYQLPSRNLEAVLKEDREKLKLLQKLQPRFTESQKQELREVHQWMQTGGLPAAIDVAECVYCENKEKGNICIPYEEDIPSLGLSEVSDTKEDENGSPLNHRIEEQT

Data set [3] concerns the target GST-IkBα.
Data set [4] addresses casein.

GST-IkBα, sequence (P25963 whole entry): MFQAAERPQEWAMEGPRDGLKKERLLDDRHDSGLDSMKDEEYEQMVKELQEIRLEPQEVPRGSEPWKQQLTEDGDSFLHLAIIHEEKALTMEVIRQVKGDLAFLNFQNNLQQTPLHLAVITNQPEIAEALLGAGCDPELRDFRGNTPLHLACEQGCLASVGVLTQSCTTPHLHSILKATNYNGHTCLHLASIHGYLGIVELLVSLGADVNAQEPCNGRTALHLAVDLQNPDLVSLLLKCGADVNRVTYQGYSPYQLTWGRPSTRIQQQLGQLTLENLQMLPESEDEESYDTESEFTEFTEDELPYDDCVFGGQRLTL

B1: HA-tagged hCKIε (human casein kinase I ε, wild type, expressed from pCEP4-CKIε in 293T cells) (protein)
chain: YPDYDVPDYAMELRVGNKYRLGRKIGSGSFGDIYLGANIASGEEVAIKLECVKTKHPQLHIESKFYKMMQGGVGIPSIKWCGAEGDYNVMVMELLGPSLEDLFNFCSRKFSLKTVLLLADQMISRIEYIHSKNFIHRDVKPDNFLMGLGKKGNLVYIIDFGLAKKYRDARTHQHIPYRENKNLTGTARYASINTHLGIEQSRRDDLESLGYVLMYFNLGSLPWQGLKAATKRQKYERISEKKMSTPIEVLCKGYPSEFSTYLNFCRSLRFDDKPDYSYLRQLFRNLFHRQGFSYDYVFDWNMLKFGAARNPEDVDRERREHEREERMGQLRGSATRALPPGPPTGATANRLRSAAEPVASTPASRIQPAGNTSPRAISRVDRERKVSMRLHRGAPANVSSSDLTGRQEVSRIPASQTSVPFDHLGK
On to B1, for which the P32 incorporation result in data set [1] is given as “co-transfection of hPER2 or hPER1 with CKIe resulted in the incorporation of p32 into both PER proteins”. For the same protein, in data set [2], the P32 incorporation into hPER2 in cpm was 5000 cpm and the “Shift in hPER2 migration” value was “+”.

B2: recombinant his-tagged wild-type hCKIε, expressed in E. coli and purified (protein)
chain: MELRVGNKYRLGRKIGSGSFGDIYLGANIASGEEVAIKLECVKTKHPQLHIESKFYKMMQGGVGIPSIKWCGAEGDYNVMVMELLGPSLEDLFNFCSRKFSLKTVLLLADQMISRIEYIHSKNFIHRDVKPDNFLMGLGKKGNLVYIIDFGLAKKYRDARTHQHIPYRENKNLTGTARYASINTHLGIEQSRRDDLESLGYVLMYFNLGSLPWQGLKAATKRQKYERISEKKMSTPIEVLCKGYPSEFSTYLNFCRSLRFDDKPDYSYLRQLFRNLFHRQGFSYDYVFDWNMLKFGAARNPEDVDRERREHEREERMGQLRGSATRALPPGPPTGATANRLRSAAEPVASTPASRIQPAGNTSPRAISRVDRERKVSMRLHRGAPANVSSSDLTGRQEVSRIPASQTSVPFDHLGK
As to B2, the “in vitro kinase assay, 32P autoradiography” value in data set [1] is “The presence of hCKIε results in phosphorylation of hPER1”; in data set [3], “Recombinant hCKIε phosphorylates both casein and IkBα substrates”; in data set [4], “Recombinant hCKIε phosphorylates both casein and IkBα substrates”.

B3: recombinant histidine-tagged hCKIε-K38R, expressed in bacteria and purified (protein)
chain: MELRVGNKYRLGRKIGSGSFGDIYLGANIASGEEVAIRLECVKTKHPQLHIESKFYKMMQGGVGIPSIKWCGAEGDYNVMVMELLGPSLEDLFNFCSRKFSLKTVLLLADQMISRIEYIHSKNFIHRDVKPDNFLMGLGKKGNLVYIIDFGLAKKYRDARTHQHIPYRENKNLTGTARYASINTHLGIEQSRRDDLESLGYVLMYFNLGSLPWQGLKAATKRQKYERISEKKMSTPIEVLCKGYPSEFSTYLNFCRSLRFDDKPDYSYLRQLFRNLFHRQGFSYDYVFDWNMLKFGAARNPEDVDRERREHEREERMGQLRGSATRALPPGPPTGATANRLRSAAEPVASTPASRIQPAGNTSPRAISRVDRERKVSMRLHRGAPANVSSSDLTGRQEVSRIPASQTSVPFDHLGK
In the case of B3, the “in vitro kinase assay, 32P autoradiography” value in data set [1] is reported as “hCKIε-K38R has no kinase activity towards hPER1”; in data set [3], “does not phosphorylate either casein or GST-IkBα substrates”; in data set [4], “does not phosphorylate either casein or GST-IkBα substrates”.

B4: hCKIε-K38R, kinase-negative mutant of hCKIε, expressed in 293T cells (protein)
chain: MELRVGNKYRLGRKIGSGSFGDIYLGANIASGEEVAIRLECVKTKHPQLHIESKFYKMMQGGVGIPSIKWCGAEGDYNVMVMELLGPSLEDLFNFCSRKFSLKTVLLLADQMISRIEYIHSKNFIHRDVKPDNFLMGLGKKGNLVYIIDFGLAKKYRDARTHQHIPYRENKNLTGTARYASINTHLGIEQSRRDDLESLGYVLMYFNLGSLPWQGLKAATKRQKYERISEKKMSTPIEVLCKGYPSEFSTYLNFCRSLRFDDKPDYSYLRQLFRNLFHRQGFSYDYVFDWNMLKFGAARNPEDVDRERREHEREERMGQLRGSATRALPPGPPTGATANRLRSAAEPVASTPASRIQPAGNTSPRAISRVDRERKVSMRLHRGAPANVSSSDLTGRQEVSRIPASQTSVPFDHLGK
As to B4, in data set [2], the P32 incorporation into hPER2 in cpm turned out to be 3000 cpm and the “Shift in hPER2 migration” value is “-”.
